In patent publication US20230091315A1 (CISBIO BIOASSAYS, published 2023):

Legend:
[1] = target: T1, human recombinant G-protein alphai1 fused at the N-terminal with a Tag Twin-Strep-tag (TST-G protein alphai1) (human, UniProt B2RSH2 1-354 (mouse entry)); experiment: HTRF (TR-FRET) titration of antibody-d2 on 2.5 nM Twin-Strep-tagged Gαi1 with anti-Twin-Strep-tag-Lumi4 Tb; condition: GDP 10 µM
T1 construct: Purified protein made in Sf9 insect cells; also called G-protein αi1; protein Gαi1
Procedure: (§1) These two reagents were prepared in one and the same solution and were preincubated for 30 minutes at room temperature before being distributed in the wells. The antibodies DSV36S-d2, DSV38S-d2 and SC13533-d2 were prepared 4× for final concentrations in the wells between 0.01 and 10 nM depending on the antibodies.
(§2) Moreover, the antibody titration curves obtained make it possible to calculate the affinity (Kd) of these different antibodies for the G-protein αi1. This was carried out using the GraphPad Prism software by applying a “one site specific binding” model to the HTRF data.

[2] = target: T1, human recombinant G-protein alphai1 …; experiment: HTRF competition on Gαi1 + GTPgS: unlabeled antibody varied against DSV36S-d2 (10 nM), detection with anti-Twin-Strep-tag-Lumi4 Tb
Procedure: (§3) These two reagents were prepared in one and the same solution and were preincubated for 30 minutes at room temperature before being distributed in the wells. The cold antibodies DSV36S, DSV38S, DSV26S, DSV3S, and DSV39S were prepared 4× for final concentrations in the wells between 0.001 and 1 μM. The antibody DSV36S-d2 was prepared 4× for a final concentration of 10 nM.
(§4) 1) 10 μl of the preincubated mixture of G-protein αi1 +GTPgS was put in each well, 2) 5 μl of the unlabeled antibodies DSV36S, DSV38S, DSV26S, DSV3S, and DSV39S was added to each well, 3) The plates were incubated for 30 minutes at room temperature, 4) 5 μl of the anti Twin-Strep-tag-Lumi4 Tb antibody and of the antibody DSV36S-d2 were added to each well.

[3] = target: T1, human recombinant G-protein alphai1 …; experiment: HTRF (TR-FRET) titration of antibody-d2 on 2.5 nM Twin-Strep-tagged Gαi1 with anti-Twin-Strep-tag-Lumi4 Tb; condition: GTP 10 µM as printed (the protocol names GTPgS)
Procedure: as §1, §2

[4] = target: T1, human recombinant G-protein alphai1 …; experiment: HTRF (TR-FRET) titration of antibody-d2 on 2.5 nM Twin-Strep-tagged Gαi1 with anti-Twin-Strep-tag-Lumi4 Tb; condition: Buffer only
Procedure: as §1, §2

[5] = target: T1, human recombinant G-protein alphai1 …; experiment: HTRF competition on Gαi1 + GTPgS: unlabeled antibody varied against 36S-d2 (DSV36S-d2, 10 nM), detection with anti-Twin-Strep-tag-Lumi4 Tb
Procedure: as §3, §4

T1 sequence (B2RSH2 whole entry, the tested form may be a part): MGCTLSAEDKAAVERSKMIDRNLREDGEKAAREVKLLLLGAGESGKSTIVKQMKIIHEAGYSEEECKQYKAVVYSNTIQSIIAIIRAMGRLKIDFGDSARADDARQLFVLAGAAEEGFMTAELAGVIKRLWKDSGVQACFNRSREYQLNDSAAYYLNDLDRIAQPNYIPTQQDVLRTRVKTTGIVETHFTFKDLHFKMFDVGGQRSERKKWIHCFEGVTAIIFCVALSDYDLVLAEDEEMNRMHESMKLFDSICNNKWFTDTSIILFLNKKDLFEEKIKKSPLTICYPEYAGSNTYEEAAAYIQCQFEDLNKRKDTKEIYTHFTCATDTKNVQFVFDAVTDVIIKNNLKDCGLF

B1: antibody DSV36S (antibody, V domains shown)
VH: EVQLQQSGAELVRPGALVKLSCKASGFNIKDYYMHWVKQRPEQGLEWIGWIDPENGNTIYDPKFQGKASITADTSSNTAYLQLSSLTSEDTAVYYCTRGGGYYSDWYFDVWGAGTTVTVSS
VL: QIVLTQSPAIMSASPGEKVTMTCSASSSVSYMHWYQQKSGTSPKRWIYDTSKLASGVPARFSGSGSGTSYSLTISSMEAEDAATYYCQQWSSNPPITFGAGTKLELK
notes: Used unlabeled or labeled with d2 (acceptor) or Lumi4Tb (donor); also called DSV36S-d2; DSV36S-Lumi4Tb
[1]
  Kd: 0.48 nM
[2]
  IC50 (read off the curve): ~0.5 nM
[3]
  Kd: 0.31 nM
[4]
  Kd: 0.82 nM
[5]
  IC50 (read off the curve): ~0.5 nM
